# Measurements: US20040029198A1, “Method of analyzing ataxia-telangiectasia protein” (priority 2002, published 2004)
# Legend:
# [1] = Stability of ATM in isolated PBMC samples stored at different temperatures, measured by sandwich immunoassay; type: physicochemical; settings: for amount of ATM: in ng/mL (unit assumed)
# Method: The following is a sandwich immunoassay which was performed to measure ATM protein in nuclear cell lysates and cell extracts from cell lines and peripheral blood mononuclear cells taken from normal individuals and A-T patients.
# Wells of a 96-well flat bottom plate were incubated with two purified commercially available anti-ATM mouse monoclonal antibodies (ATM-2C1, GeneTex, Inc, San Antonio, Tex.; Ab-8, NeoMarkers, Fremont, Calif.) at 5 μg/ml in phosphate-buffered saline, pH 7.4 for 6 hours. After extensive washing and blocking of the wells for one hour with a solution of 3% bovine serum albumin in phosphate buffered saline containing 0.1% Tween-20, standard concentrations of purified ATM protein and nuclear cell lysates or cell extracts (see below) were added to the wells for an overnight incubation at room temperature.
# After extensive washing, a rabbit anti-ATM antiserum at a 400× dilution was added to each of the wells and incubated for 3 hours at room temperature. The antiserum came from Novus Biologicals (NB 100-104, Littleton, Colo.). After washing and blocking, an HRP-conjugated goat anti-rabbit IgG antiserum at a 1:6000 dilution was added to each well and incubated for 3 hours at room temperature. The conjugate came from Jackson ImmunoResearch Laboratories (211-035-109, West Grove, Pa.).
# The plate was then washed and Pierce ImmunoPure tetramethylbenzidine (TMB) substrate (34021, Rockford, Ill.) was added to each well. After color development, the reaction was stopped with 1M sulfuric acid and the color intensity was measured spectrophometrically at 450 nm. A concentration curve was generated based on signals generated for the purified ATM protein and concentrations of unknown samples were read off the standard curve.
# Nuclear lysates were prepared from lymphoblastoid cell lines (EBV-infected) derived from A-T patients and healthy donors using commercially available extraction reagents and procedures (78833, Pierce, Rockford, Ill.). Whole cell extracts were generated from peripheral blood mononuclear cells and lymphoblastoid cell lines by subjecting known numbers of resuspended cells to ultrasonic energy at a 20 kHz frequency generated by a Fisher Sonic Dismembrator (model 550). The disrupted cell product was then added directly to wells of the microtiter plate without any additional manipulations.
# (§1) It has been observed that ATM protein is unstable in whole blood. […] It is therefore preferable that ATM proteins be isolated and measured shortly after extracting the cells from a patient to obtain the most reliable data. […] Table 2 compares the amount of ATM in two such samples stored at −5° C. and −70° C.
# [2] = Stability of ATM protein in whole blood; type: physicochemical; settings: FIG. 3
# Method: as §1
substance,measurement,setting,value
"ATM: 370 kDa protein kinase known as ""ataxia-telangiectasia, mutated"" (ATM), encoded by the A-T gene",stability of ATM levels in a sample,"[1]; PBMCs isolated from fresh blood, stored at −70° C. for 6 weeks",relatively stable
same,amount of ATM,"[1]; stored at −5° C., week 0, 3 readings",444 ± 22
same,amount of ATM,"[1]; stored at −5° C., week 1, 3 readings",126 ± 8
same,amount of ATM,"[1]; stored at −5° C., week 2, 3 readings",115 ± 14
same,amount of ATM,"[1]; stored at −5° C., week 3, 3 readings",66 ± 17
same,amount of ATM,"[1]; stored at −5° C., week 4, 3 readings",50 ± 10
same,amount of ATM,"[1]; stored at −5° C., week 6, 3 readings",32 ± 2
same,amount of ATM,"[1]; stored at −70° C., week 0, 3 readings",444 ± 22
same,amount of ATM,"[1]; stored at −70° C., week 1, 3 readings",458 ± 11
same,amount of ATM,"[1]; stored at −70° C., week 2, 3 readings",512 ± 63
same,amount of ATM,"[1]; stored at −70° C., week 3, 3 readings",424 ± 34
same,amount of ATM,"[1]; stored at −70° C., week 4, 3 readings",439 ± 79
same,amount of ATM,"[1]; stored at −70° C., week 6, 3 readings",458 ± 69
same,stability in whole blood,[2],unstable
